Measured values as given in patent US7250269B2, “Composition for assaying glycoprotein” (Asahi Kasei Pharma Corporation, priority 2001, dated 2007).

Columns and labels:
Assay type in all cases: biochemical
[1] = molecular target: T1, HSA substrate solution; Albumin Human (Homo sapiens, UniProt P02768); assay: Activity of various proteases on HSA substrate solution (released glycated amino acids/peptides assayed with R-FOD); details: pH 8.0; 37° C. for 30 minutes
T1 construct: purchased Sigma-Aldrich Co
Description: (§1) • 1. […] GA % was assayed using a glycated albumin analyzer (GAA-2000, manufactured by ARKRAY, Inc.). • 2. G-II and III substrate solutions, FRA value=48 μmol/L [Globulins Human Cohn Fraction II and III; 16.9 mg/ml (manufactured by Sigma-Aldrich Co.)] • 3. G-IV substrate solution, FRA value=26 μmol/L [Globulins Human Cohn Fraction IV; 6 mg/ml (manufactured by Sigma-Aldrich Co.)] • 4. G-I substrate solution, FRA value=77 μmol/L [Glovenin I: immunoglobulin preparation (manufactured by Takeda Chemical Industries, Ltd.)] • 5. Hb substrate solution: Hemoglobin Human; 55 mg/ml, glycated hemoglobin rate: HbA1c=4.5% [manufactured by Sigma-Aldrich Co., the HbA1c value was determined using a glycated hemoglobin analyzer (Hi-Auto A1C HA-8150, manufactured by ARKRAY, Inc.)].
(§2) 200 μl of a substrate solution other than Hb, 40 μl of 100 mg/ml protease solution (a solution with a concentration as close to 100 mg/ml as possible if a 100 mg/ml solution cannot be prepared, or as is if the protease solution is liquid), and 10 μl of 1 M Tris buffer solution (pH 8) were thoroughly mixed and reacted at 37° C. for 30 minutes. The reaction solution was filtered through 10,000 NMWL membrane (Ultrafree MC, manufactured by Millipore Corp.) The filtrate was served as the protease reaction sample. The same procedure was conducted using distilled water instead of the substrate to prepare a blank sample.
(§3) 300 μl of the above reaction solution for assaying glycated amino acids was added to a cell and incubated for three minutes at 37° C. […] 30 μl of the protease reaction sample was then added to the cell and incubated for five minutes at 37° C. […] The same procedure was conducted using the blank sample instead of the protease reaction sample. Absorbances (A0 blank and A1 blank) were measured. The reaction of protease with glycated proteins is indicated by the following absorbance change. ΔA=(A1−A0)−(A1 blank−A0 blank)

[2] = test system: G-I substrate solution (Glovenin I: immunoglobulin preparation); assay: Activity of various proteases on G-I substrate solution (R-FOD assay); details: pH 8.0, 37° C. for 30 minutes
Description: as §1, §2, §3

[3] = molecular target: T2, Hb substrate solution: Hemoglobin Human (Homo sapiens, UniProt P68871+P69905); assay: Activity of various proteases on Hb substrate solution (R-FOD assay); details: pH 8.0; 37° C. for 60 minutes
T2 construct: purchased Sigma-Aldrich Co
Description: as §1
For the Hb substrate solution, 150 μl of the substrate solution, 60 μl of 200 mg/ml protease solution (a solution with a concentration as close to 200 mg/ml as possible if a 200 mg/ml solution cannot be prepared, or as is if the protease solution is liquid), and 5 μl of 1 M Tris buffer solution (pH 8) were thoroughly mixed and reacted at 37° C. for 60 minutes. The reaction solution was filtered through 10,000 NMWL membrane (Ultrafree MC, manufactured by Millipore Corp.). The filtrate was served as the protease reaction sample. The same procedure was conducted using distilled water instead of the substrate to prepare a blank sample.
as §3

[4] = FOD enzyme activity / substrate specificity on glycated lysine; details: glycated lysine / glycated valine
Description: 164 strains of mutant colonies obtained in Example 15 were cultured for 16 hours at 30° C. in 1.5 ml of a 3.7% BHI liquid medium (manufactured by DIFCO Co.) containing 50 μg/ml of ampicillin and 1 mM of IPTG. 1 ml of the culture broth was centrifuged (15,000 G for one minute at 4° C.) to collect cells. 200 μl of 10 mM Tris-HCl buffer solution (pH 8.0) was added to the collected cells. After crushing the cells using an ultrasonic breaker, the mixture was centrifuged (14,000 G for five minutes at 4° C.) to obtain a cell extract as a supernatant.
The glycated amino acid substrate specificity of FOD-mutated recombinant contained in the cell extract prepared in Example 16 was measured using the above-mentioned FOD enzyme activity measuring method.
Synthesis of an oligonucleotide having the base sequence of 1-27 in the sequence table Sequence ID No. 7 was consigned to an outside source (BEX Co., Ltd.). The oligonucleotide was subjected to the site-directed mutagenesis using the Mutan-K kit (manufactured by Takara Shuzo Co., Ltd.) according to the manual attached to the kit. The mutant gene obtained was incorporated again into the expression plasmid pTV119N, introduced into Escherichia coli host, and cultured at 30° C. for 16 hours in a 3.7% BHI liquid medium containing 50 μg/ml of ampicillin and 1 mM of IPTG to produce mutant FOD protein.

T2 sequence (P69905 2-142 limits assumed): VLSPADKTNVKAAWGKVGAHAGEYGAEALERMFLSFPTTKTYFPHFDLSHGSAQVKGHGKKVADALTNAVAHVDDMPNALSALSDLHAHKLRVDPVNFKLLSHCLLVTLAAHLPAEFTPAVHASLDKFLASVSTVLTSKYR
T2 sequence (P68871 2-147 limits assumed): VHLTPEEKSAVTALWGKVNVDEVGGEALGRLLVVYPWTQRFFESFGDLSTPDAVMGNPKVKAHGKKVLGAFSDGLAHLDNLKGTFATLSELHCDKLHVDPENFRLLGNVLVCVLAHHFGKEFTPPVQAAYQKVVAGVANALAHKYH

B1: Carboxypeptidase Y: protease, origin Yeast (protein, UniProt P00729 112-532, looked up)
Carboxypeptidase Y: KIKDPKILGIDPNVTQYTGYLDVEDEDKHFFFWTFESRNDPAKDPVILWLNGGPGCSSLTGLFFELGPSSIGPDLKPIGNPYSWNSNATVIFLDQPVNVGFSYSGSSGVSNTVAAGKDVYNFLELFFDQFPEYVNKGQDFHIAGESYAGHYIPVFASEILSHKDRNFNLTSVLIGNGLTDPLTQYNYYEPMACGEGGEPSVLPSEECSAMEDSLERCLGLIESCYDSQSVWSCVPATIYCNNAQLAPYQRTGRNVYDIRKDCEGGNLCYPTLQDIDDYLNQDYVKEAVGAEVDHYESCNFDINRNFLFAGDWMKPYHTAVTDLLNQDLPILVYAGDKDFICNWLGNKAWTDVLPWKYDEEFASQKVRNWTASITDEVAGEVKSYKHFTYLRVFNGGHMVPFDVPENALSMVNEWIHGGFSL
- ΔA HSA [1]: 2 mAbs
- ΔA Gl [2]: 14 mAbs
- ΔA Hb [3]: 4 mAbs

B2: Reactive 327th amino acid Valine: mutant obtained by replacing the lysine with valine, named FOD-V; plasmid pcmFOD5; Sequence ID No. 4 (protein)
chain: ASTLTKQSQILIVGGGTWGCSTALHLARRGYTNVTVLDVNRIPSPISAGHDVNKLAGRLSTADSKGDDEDSIWKALSYAAAQGWLHDPVFQPFCHNTGSVVAGSTPKSIKQLVEDEIGDDIDQYTPLNTAEDFRKTMPEGILTGNFPGWKGFYKPTGSGWVHARKAMKAAFEESERLGVKFITGSPEGKVESLIFEDGDVRGAKTADGKEHRADRTILSAGASAEFFLDFENQIQPTAWTLGHIQMTPEETKLYKNLPPLFNINQGFFMEPDEDLHQLKMCDEHPGYCNWVEKPGSKYPQSIPFAKHQVPTEAERRMKQFLKDIMPQLADRPLVHARICWCADTQDRMFLITYHPRHPSLVIASGDCGTGYVHITSIGKFISDCMEGTLEERFAKFWRWRPEKFTEFWGKDPLDRFGADDKIMDLPKSDVEGWTNIKNDI
modifications: sequence derived from Fusarium oxysporum IFO- 9722
- Reactivity ratio, glycated lysine / glycated valine [4]: 1930

B3: Reactive 327th amino acid Lysine (wild type): wild type fructosyl amino acid oxidase (FOD) originating from Fusarium oxysporm IFO-9972, Sequence ID No. 1 (protein)
chain: ASTLTKQSQILIVGGGTWGCSTALHLARRGYTNVTVLDVNRIPSPISAGHDVNKLAGRLSTADSKGDDEDSIWKALSYAAAQGWLHDPVFQPFCHNTGSVVAGSTPKSIKQLVEDEIGDDIDQYTPLNTAEDFRKTMPEGILTGNFPGWKGFYKPTGSGWVHARKAMKAAFEESERLGVKFITGSPEGKVESLIFEDGDVRGAKTADGKEHRADRTILSAGASAEFFLDFENQIQPTAWTLGHIQMTPEETKLYKNLPPLFNINQGFFMEPDEDLHQLKMCDEHPGYCNWVEKPGSKYPQSIPFAKHQVPTEAERRMKQFLKDIMPQLADRPLVHARICWCADTQDRMFLITYHPRHPSLVIASGDCGTGYKHITSIGKFISDCMEGTLEERFAKFWRWRPEKFTEFWGKDPLDRFGADDKIMDLPKSDVEGWTNIKNDI
- Reactivity ratio, glycated lysine / glycated valine [4]: 9.5

B4: Proteinase K: protease, origin Tritirachium (protein, UniProt P06873 106-384, looked up)
Proteinase K: AAQTNAPWGLARISSTSPGTSTYYYDESAGQGSCVYVIDTGIEASHPEFEGRAQMVKTYYYSSRDGNGHGTHCAGTVGSRTYGVAKKTQLFGVKVLDDNGSGQYSTIIAGMDFVASDKNNRNCPKGVVASLSLGGGYSSSVNSAAARLQSSGVMVAVAAGNNNADARNYSPASEPSVCTVGASDRYDRRSSFSNYGSVLDIFGPGTSILSTWIGGSTRSISGTSMATPHVAGLAAYLMTLGKTTAASACRYIADTANKGDLSNIPFGTVNLLAYNNYQA
- ΔA HSA [1]: 79 mAbs
- ΔA Gl [2]: 45 mAbs
- ΔA Hb [3]: 32 mAbs

B5: Carboxypeptidase A: protease, origin Cow pancreas (protein, UniProt P00730 111-419, looked up)
Carboxypeptidase A1: ARSTNTFNYATYHTLDEIYDFMDLLVAEHPQLVSKLQIGRSYEGRPIYVLKFSTGGSNRPAIWIDLGIHSREWITQATGVWFAKKFTEDYGQDPSFTAILDSMDIFLEIVTNPDGFAFTHSQNRLWRKTRSVTSSSLCVGVDANRNWDAGFGKAGASSSPCSETYHGKYANSEVEVKSIVDFVKDHGNFKAFLSIHSYSQLLLYPYGYTTQSIPDKTELNQVAKSAVEALKSLYGTSYKYGSIITTIYQASGGSIDWSYNQGIKYSFTFELRDTGRYGFLLPASQIIPTAQETWLGVLTIMEHTLNNLY
- ΔA HSA [1]: <1 mAbs
- ΔA Gl [2]: 50 mAbs
- ΔA Hb [3]: 13 mAbs

B6: Alcalase: protease, origin Bacillus (protein, UniProt P00780 106-379, looked up)
Subtilisin Carlsberg: AQTVPYGIPLIKADKVQAQGFKGANVKVAVLDTGIQASHPDLNVVGGASFVAGEAYNTDGNGHGTHVAGTVAALDNTTGVLGVAPSVSLYAVKVLNSSGSGSYSGIVSGIEWATTNGMDVINMSLGGASGSTAMKQAVDNAYAKGVVVVAAAGNSGSSGNTNTIGYPAKYDSVIAVGAVDSNSNRASFSSVGAELEVMAPGAGVYSTYPTNTYATLNGTSMASPHVAGAAALILSKHPNLSASQVRNRLSSTATYLGSSFYYGKGLINVEAAAQ
- ΔA HSA [1]: 92 mAbs
- ΔA Gl [2]: 49 mAbs
- ΔA Hb [3]: 17 mAbs

B7: Trypsin: protease, origin Cow pancreas (protein, UniProt P00760 24-246, looked up)
Serine protease 1: IVGGYTCGANTVPYQVSLNSGYHFCGGSLINSQWVVSAAHCYKSGIQVRLGEDNINVVEGNEQFISASKSIVHPSYNSNTLNNDIMLIKLKSAASLNSRVASISLPTSCASAGTQCLISGWGNTKSSGTSYPDVLKCLKAPILSDSSCKSAYPGQITSNMFCAGYLEGGKDSCQGDSGGPVVCSGKLQGIVSWGSGCAQKNKPGVYTKVCNYVSWIKQTIASN
- ΔA HSA [1]: 11 mAbs
- ΔA Gl [2]: 15 mAbs
- ΔA Hb [3]: <1 mAbs

B8: Papain: protease, origin Papaya (protein, UniProt P00784 134-345, looked up)
Papain: IPEYVDWRQKGAVTPVKNQGSCGSCWAFSAVVTIEGIIKIRTGNLNEYSEQELLDCDRRSYGCNGGYPWSALQLVAQYGIHYRNTYPYEGVQRYCRSREKGPYAAKTDGVRQVQPYNEGALLYSIANQPVSVVLEAAGKDFQLYRGGIFVGPCGNKVDHAVAAVGYGPNYILIKNSWGTGWGENGYIRIKRGTGNSYGVCGLYTSSFYPVKN
- ΔA HSA [1]: 15 mAbs
- ΔA Gl [2]: 5 mAbs
- ΔA Hb [3]: <1 mAbs
